In US7884067B2, “Peptides derived from cadherin and methods of use thereof” (Mount Sinai School of Medicine of New York University, priority 2001, dated 2011):

B1: N-Cad/CTF2: chicken cytoplasmic domain of N-cadherin (N-Cad/CTF2) inserted into vector pECE, expressed in L cells (protein)
chain: KRRDKERQAKQLLIDPEDDVRDNILKYDEEGGGEEDQDYDLSQLQQPDTVEPDAIKPVGIRRLDERPIHAEPQYPVRSAAPHPGDIGDFINEGLKAADNDPTAPPYDSLLVFDYEGSGSTAGSLSSLNSSSSGGEQDYDYLNDWGPRFKKLADMYGGGDD

Tests used:
[1] = tested on: N-cadherin; assay: In vitro γ-secretase-like ε-cleavage assay, membranes of WT-PS1-transfected HEK293 cells; type: biochemical, human; settings: membranes from WT-PS1-transfected clone #7, presence of L-685,458, 37° C. 2 hours
Protocol: (§1) In vitro γ-secretase-like ε-cleavage assay. Cells were washed in PBS, resuspended in 1 ml of 4° C. hypotonic buffer (10 mM MOPS, pH 7.0, 10 mM KCl) and homogenized on ice. A post-nuclear supernatant was prepared by centrifugation at 1000×g for 15 minutes at 4° C. Crude membranes were isolated from the post-nuclear supernatant by centrifugation at 16,000×g for 40 minutes at 4° C. The membranes were then resuspended in […] of assay buffer (150 mM sodium citrate, pH 6.4, 1× Complete protease inhibitor cocktail), and incubated at 37° C. for 2 hours. Samples were either analyzed directly by WB or separated into pellet (P100) and supernatant (S100) fractions by ultracentrifugation for 1 hour at 100,000×g at 4° C. The S100 and P100 fractions were then analyzed by WB.
Membranes from PS1−/− (FIG. 7C, lane 1) or PS1+/+ (FIG. 7C, lanes 2-4) fibroblasts or from N2a cell cultures (FIG. 7C, lanes 5-6) incubated for 16 hours in the absence or presence of DMSO or L-685,458 ([…]), were incubated at 37° C. for 2 hours, separated by centrifugation in a pellet (P100, FIG. 7C, upper panels) and a soluble (S100, FIG. 7C, lower panels) fractions and then probed on WBs with C32 antibody. […]

[2] = tested on: N-cadherin; assay: In vitro ε-cleavage assay, membranes from embryonic fibroblast cultures (WT / PS1 P264L knock-in study); type: biochemical, mouse; settings: FIG. 13A lanes 1 and 2
Protocol: as §1
To investigate the consequences of FAD mutations in a physiologically relevant system in the absence of PS1 overexpression, the ε-cleavage of N-cadherin was examined in two independent embryonic fibroblast clones derived from a gene-targeted (knock-in) mouse homozygous for the human PS1 FAD mutation P264L (Siman et al. (2000) J. Neurosci. 20:8717-8726). Expression of the knock-in mutant PS1 allele is under the control of the endogenous PS1 gene. These models are distinct from overexpressing transgenic models because the mutant gene is expressed at normal levels, similar to those observed in WT models (FIG. 13, panel d). […]

[3] = tested on: c-fos; assay: c-fos mRNA (RT-PCR) and protein (Western blot) in L cells; type: cell-based
Protocol: Reverse Transcriptase (RT)-PCR Analysis. Total RNA was extracted from cells using a RNeasy Mini Kit (Qiagen) according to instructions by the manufacturer. Analysis of gene expression was performed using semiquantitative RT-PCR. The following primers were used: 5′-[…]-3′ (SEQ ID NO: 13) and 5′-[…]-3′ (SEQ ID NO: 14) for c-fos; 5′-[…]-3′ (SEQ ID NO: 15) and 5′-[…]-3′ (SEQ ID NO: 16) for gapdh.
Semi-quantitative RT-PCR was used to determine relative levels of c-fos or gapdh mRNAs from L cells transfected either with vector (vector) or with 0.5 mg of pN-Cad/CTF2 (N-Cad/CTF2). The graph in FIG. 9C represents the relative abundance of c-fos-specific PCR products following quantitation of the mRNA signals shown in the upper panel.
Extracts from L cells transfected with increasing amount of pN-Cad/CTF2 were probed on WBs with anti-c-fos (FIG. 9D, upper panel), anti-β-tubulin (FIG. 9D, middle panel) or C32 (FIG. 9D, lower panel) antibodies. Bars in lower panel represent the relative amounts of c-fos protein detected on WBs shown in the upper panel.

[4] = tested on: MEF-1; assay: Electrophoretic mobility shift assay, MEF-1 probe; type: biochemical; settings: FIG. 11C lanes 12-14
Protocol: Electrophoresis mobility shift assay (EMSA). Nuclear extract from CBP-transfected L cells were prepared using the extraction kit N-XTRACT (Sigma) according to manufacturer's instructions. Ten microgram of nuclear extract was used for EMSA performed according to manufacturer's instructions using biotinylated double-stranded oligonucleotide probes containing DNA-binding motifs for CREB or MEF-1 (Panomics). Probes are as follow: CREB, 5′-[…]-3′ (SEQ ID NO: 17); MEF-1,5′-[…]-3′ (SEQ ID NO: 18). Reaction products were separated on 6% polyacrylamide gels in cold TBE buffer (50 mM Tris-HCl, 45 mM Boric acid, 0.5 mM EDTA), transferred to nylon membranes (Immobilon-Ny+, Millipore) and bound probes were immobilized for 30 minutes at 85° C. and visualized by chemiluminescence using streptavidin-HRP conjugate. For antibody supershift analysis, nuclear extract was incubated for 3 hours at 4° C. with […] of 1 B6 antibody prior to probe addition. Where indicated, nuclear extract ([…]) was immunoprecipitated with A-22 antibody ([…]) and protein A-agarose in EBC buffer (50 mM Tris, pH 8, 120 mM NaCl, 0.5% NP40, 1× Complete protease inhibitor cocktail).

Molecule	N-Cad/CTF2 production [1]	production of N-Cad/CTF2 [2]	cellular c-fos mRNA ([3]; 0.5 mg of pN-Cad/CTF2, vs vector, FIG. 9C)	c-fos protein ([3]; increasing amount of pN-Cad/CTF2, FIG. 9D)	levels of β-tubulin ([3]; pN-Cad/CTF2, FIG. 9D)	expression of gapdh mRNA ([3]; pN-Cad/CTF2 vs vector, FIG. 9C)	complex formation between MEF-1 and DNA probe containing MEF-1-binding elements [4]
CC(C)C[C@H](NC(=O)[C@H](Cc1ccccc1)C[C@@H](O)[C@H](Cc1ccccc1)NC(=O)OC(C)(C)C)C(=O)N[C@@H](Cc1ccccc1)C(N)=O [L-685,458]	no N-Cad/CTF2 was detected	sensitive					
B1			markedly reduces	markedly reduces	no effect	no effect	no effect
